In a protein production outcome set (Wang et al. 2014):

Test: label from the status in PepcDB records
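Further: failed if final PepcDB status was selected cloned or expressed and not failed if soluble or beyond.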

Sequence | protein production
MQEKGFKEGVKASLPTALGYVSIGLACGVVGANSGLTPFQMGLMSLLVYAGSAQFVMCAMFVAGADLFSIVMTVFLINLRNFLMSLHATTIFTKSSLWQTICIGTLITDESYGVLLNEHVHHKNISTAWMHGNNITGYIAWLFAVILGTALGSVIPNPETLGLDFALIAMFVSIFESQLAAMMQFVKLKKIGLILLAVTLSYFLLVIVISESLAVLLSTLIGCFAGVLLDVR | failed
MSVFAKVVELGSFTAAARQLQMSVSSISQTVAKLEDELQVKLLNRSTRSLGLTEAGKIYYQGCRRMLFEAQDVHEQLYAFNNTPIGTLRIGCSSTMAQNVLARITAKMLKEYPGLSVNLVTGIPAPDLIADGLDVVIRVGALQDSSLFSRRLGSMPMVLCAAKSYLAQAGNPEKPADLAGHAWLEYSVRPDNEFVIIAPEGISTRLTPQGRFVTNDPMTLVRWLTAGVGIAYVPLMWAIEEINRGELEILLPSYQSDPRPVYALYTEKDKLPLKVQVCINYLTEYFVDVAKIYQGMHGRGIAR | failed
VASGYGGIRVGGPYFDDLSKGQVFDWAPGVTLSLGLAAAHQSIVGNRLRLALDSDLCAAVTGMPGPLAHPGLVCDVAIGQSTLATQRVKANLFYRGLRFHRFPAVGDTLYTRTEVVGLRANSPKPGRAPTGLAGLRMTTIDRTDRLVLDFYRCAMLPASPDWKPGAVPGDDLSRIGADAPAPAADPTAHWDGAVFRKRVPGPHFDAGIAGAVLHSTADLVSGAPELARLTLNIAATHHDWRVSGRRLVYGGHTIGLALAQATRLLPNLATVLDWESCDHTAPVHEGDTLYSELHIESAQAHADGGVLGLRSLVYAVSDSASEPDRQVLDWRFSALQF | not failed
MNQRLDHYLKNTNQCETRSKAIDLIKRGRVFVNNFQVLKPSFLVKQTDSVEIKNDEMYFVSKGGYKLLKIIKEINLIIKNFVIADLGSSTGGFTDCCLQLGAKKIYAIDVGVDLLHPSLKKSYKIINYEKTNVKNLDKSYFLEDLDLIVGDLSFISLEQIFPIIKKISSPKTLLLLLIKPQFELGKDVASKYKGLIQNQKLQQLAINKIINLAKNYDFECKHLTPTDIFDEKKQNQEYMIFLQKHEK | failed
MLPRVHRVRRGGTVYKYHRRTRKELPRDVPEDDPRFVAAWLAEEQRAPTVRSRSQAGTIAAACEAYLGSRSYRELSDGYRPVIRRHVERIKEQGEKALLKDLLPRHIRADLEPLSPPVASSRLKAWRKLAEFWLLKGMLDADPSEGVKRKKMGKVAGFTEWTAEDLEAFRARWPIGTAQRLALELYQWTGARCVDVIRLGPQMVGRDGVLTYVQQKTGNPAHVPWTCPAFGLEEQRADLMRCLPVGSPVYMLTEYGKPRTQKGVSQWFSAAAREAGLESRTAHGLRKYRMNALAEHGASVLVMQSWVGHTTLLEVQEYTRRADRRRVISGGHPVKRDPAGA | failed
MRLTKLAATIGCVTLSGLALVACSSDSTAGTDAVAVGGTFQFHSPDGKMEIFYDEADRQQLPDIGGDSLMEEGTQINLSDFENQVVILNAWGQWCAPCRSESDDLQIIHEELQAAGNGDTPGGTVLGINVRDYSRDIAQDFVTDNGLDYPSIYDPPFMTAASLGGVPASVIPTTIVLDKQHRPAAVFLREVTSKDVLDVALPLVDEA | not failed
MVKIGVCGPVGSGKTALIEALTRHMSKDYDMAVITNDIYTKEDAEFMCKNSVMPRERIIGVETGGCPHTAIREDASMNLEAVEEMHGRFPNLELLLIESGGDNLSATFNPELADFTIFVIDVAEGDKIPRKGGPGITRSDLLVINKIDLAPYVGADLKVMERDSKKMRGEKPFIFTNIRAKEGLDDVIAWIKRNALLED | failed
MILLGVSERSDHSLHITGVDDAHKLVQDFWNTVHDSSTISSVVLSENDVVVRHTGQGDIVSIDIPRASRERIPVYVGPNPLKGSYRRNGDGDYLCDSETVHAMLRDSDLRPLDRKIVGG | failed
MTDQVFGKVSKVVCVGAGYVGGPTCAMIAHKCPHITVTVVDMNTAKIAEWNSDKLPIYEPGLDEIVFAARGRNLFFSSDIPKAIAEADLIFISVNTPTKMYGRGKGMAPDLKYVESVSRTIAQYAGGPKIVVEKSTVPVKAAESIGCILREAQKNNENLKFQVLSNPEFLAEGTAMKDLANPDRVLIGGESSPEGLQAVAELVRIYENWVPRNRIITTNTWSSELSKLVANAFLAQRISSINSISAVCEATGAEISEVAHAVGYDTRIGSKFLQASVGFGGSCFQKDVLSLVYLCESLNLPQVADYWQGVININNWQRRRFADKIIAELFNTVTDKKIAIFGFAFKKNTGDTRESSAIHVIKHLMEEHAKLSVYDPKVQKSQMLNDLASVTSAQDVERLITVESDPYAAARGAHAIVVLTEWDEFVELNYSQIHNDMQHPAAIFDGRLILDQKALREIGFRTFAIGTSPDQAYNLFGTAGY | not failed
IGPPESWPQALKTAVRIMLTSQQPIWIGWGTELTYLYNDPYKSIIGGKHPWALGRPTSEVWSEIWEDIAPLLAKATSGHEGTYVEAQLLIMERNGFPEETYYTFSYSPIPTDDGSPGGIFCANTDDTQRVITERQLSLLRDLAASAAESRS | failed
MICRTIVEGTTKISVPVPPPDANFPPSAAPVFYNPEMELNRDINVAATAAFVERLLSKKDILREEIRYVDAFSASGIRGLRIAGEVGIHSTMNDWSHEAFELIKENIKINGLEEKAQATRRNANVLLHEQRFHIVDVDPFGTPSPYLDAAASSAYSMLSVTATDTAPLCGAHLNSGIRKYASVPLNTEYHSEMGLRVLLGACARELAKHEKGMLPLLSHVTRHYVRTYLEVLPGSRKADKTLKSMGFVAHCPRCGFRKPVYGLAVHIEKECPECGGLTKIAGPLWLGPYREPEFCNEVISELEAHPLNTKEKVRKIITFCRDELDIPMFYDQHVICKELGASATGIESLIEALRAGGFEASRTHFTGTSFKTDAPIAEIKKIILALSG | failed
MHHLILGYGYCGYYLAQELLGHHQQVTVVSRQLKKELELSKLQHISHDLEYPFHWSEPDSIIYYLIPPPSQGTCDTFLQQFLNQSSLNAKKIIYFGSSGVYGNHQGAWVDELSACIIDSPRQQRRLDAEQQWLAYCQQHNKELSLLRIAGIYGPNRIPADAAKSKIPIIKPTEAPFTNHIFVKDLALIAYLLGQKQTTSAVYNVADGNPTHMGELQQTVANALGIESASYESFEQAWEKASPMKREFMRASKRLKIDLLKTALGEDIQFTSLYDAVKQSL | failed
MSILKVIKQKWVALGALLGSGALVGLSTNLAKVAYGQDLAPFPFLTWSLAGATLILGSISFLTKQTPPTNTGAIKYYFIAGFFSVAGSNLILFSAVSHVGVSFVVLVISLTPIFTYIAALALGMEIFSRWRVASVIFSLAGTALLVTAKLSLPETNHLWILITLIGPVLLASGNIYRTSHWPKGAKPESLAPGMLLAATATLVLAAISIQGVSLFALFNTENIGLIVLQSIIFSGQFLLLFVLQKAGGPVFLSLTGAVSAAFGIPFAMALLDEPMLPALAPSALLIVTGIIFMMKEQAISNA | failed
MLLKSIIPCMVKAFKFRLYPTTAQAVQLNQHIGSCRFVYNWALDQKIKTYEQTGKSISRFDLNKLIPTLKASNEWLGEVNSQSLQGMTKQVESAFTRFFRGKTGFPKFKSKKNPIQSFPVPQHYSVDFEKNTIKLPKIEPIKAVFHRKFEGELKTATVSRTCKGHYYISILVEDGKELPVKEAFAESTTIGIDVGIKDFAVLSNGEKIENPKYLKNSLKRLKVLQKRVSKKQKGSKNRAKAKQRLAVLHDKITNQRNDFQNKLSFKLISENQAVALETLNVKGMVKNHHLAQSISDSAWSSFVTKLEYKAEWFGKTILRIGQFEPSSKLCSVCGYHNKELQLKDREWTCPDCKTKHDRDINAAINIKKFALVDQNLIGLLEHHHHHH | not failed
MSVTRRELLKLAGAAGAMSLAPAIVRAQKLEKAKVQIAVGGKPLIYYLPLTIAEVKGFFKDEGLDVSIADFAGGSKALQAVVGGSADVVSGAFEHTLSLQAKGQFYRAFALQGRAPMIGVGVSKKNLPGYKGPADLKGRKIGVTAPGSSTNMVVNFFLAKHGLKASDVSFIGVGAGAGAVTALRSGQIDAISNTDPVVSMLETSGDIQIIVDTRTLKDTKEIFGGNMPAGCLYAPQAFVDANPNTAQALTNAIVRADKWIQKAGADEIAKAVPEGYLLGDPAVYKAAIGKSMEGLSPDGVIPEDGAATALKALAAFVPDFDAAKVDPAKAWTNEYTRRANEKYPNG | not failed
MDSKQQRIGVIGTGAIGGFYGLMLAHAGHDVHFLLRSEFEAVNRAGLSLNSAVHGFRRLAPVQAYHSAQDMPPCDWLLVGAKTTGNDELAPLIRAAAAPGAKVLLLQNGLGVEERLRPLLPESLHLLGGLCFICVHRGEPGVIEHQAYGGVNLGYHSGPADERRRREIVEEGAALFRESGLESTAMPDLEQARWQKLVWNIPYNGLSVLLKSSTAPLMANADSRSLIEAIMEEVIGAAGACGFILPEGYADQLLAATERMPDYRPSMYHDFAHGRPLELAAIYAAPLARAAAAGYR | failed
GDDEIAMLGRYFNQMTRQLKGQRDTLLENTHQIERRRRLFDSVLSSVTSGVVGLDSQGKVTFVNRSAERLLDWSGDEQSLDLAVAVPEFVSLFESLVAAGQETVQAEIKVTRKGQLENLLVRMSTRRGEDDTLEGYVIAFDD | failed
MSGDAATDADAGRAGPGGVFGVGFRSLLRREILRFVRRPRNTFAPPAITNVLYFAVFGVILGQRIDDIAGFDYIVFLLPGLVVLGAISNAFENASFSIFHGRWNEYIHETLTAPLSYSSMVLAYVFAAALRGIIVGLIIVAVGLVFTTVPVNEPLYLAAFMVVVPLLFASLGVIGGLVAEDFDDLTVMNQFILRPLVFFGAVFYSLEILPPLYRTLSLLNPMVYMVNGVRYGFLGYQEVDPLASLAVLSGLTAAVIVLDIYLFKRGYGLID | failed
MQQVFNVSVPVPDDVVIISKEEYLNLLSDNEQGKWWDIDNLQELLGIGRSKLINDILLNPDIKKEVDLSINPNGFIVYPKGKGSRYKILATKARKYFEDNFGSILLNS | failed
MEKRFYILTIVVEDREKAYRQVNELLHNFSEDILLRVGYPVREENMAIIFLVLKTDNDTIGALSGKLGQISGVRVKTVPLKR | not failed
ILKEYSKLLSFNAQKYYLVGAEKEDLVQEGILGLLKAIKFYDETKSSFSSFAFLCIRREMISAIRKANTQKHMVLNEALKTNAILEDSAYFDDEGHNINNYKSSESNPEEAYLLKEEIEEFKKFSENNFSKFEKEVLTYLIRGYSYREIATILSKNLKSIDNTIQRIRKKSEEWIK | failed
PFGSTSGSLFGPSSFTAAPTGTTIKFNPPTGTDTMVKAGVSTNISTKHQCITAMKEYESKSLEELRLEDYQANRKGPQNQVGAGTTTGLFGSSPATSSATGLFSSSTTNSGFAYGQNK | failed
